We go through 6 molecules from publication PMC12059179, “A short intrinsically disordered region at KtrB’s N-terminus facilitates allosteric regulation of K^+ channel KtrAB” (Nature Communications, 2025).

B3: KtrB from Vibrio alginolyticus, tagless, full length (natural protein, UniProt O87953 1-455, looked up)
chain: MTQFHQRGVFYVPDGKRDKAKGGEPRIILLSFLGVLLPSAVLLTLPVFSVSGLSITDALFTATSAISVTGLGVVDTGQHFTLAGKILLMCLMQIGGLGQMTLSAVLLYMFGVRLSLRQQALAKEALGQERQVNLRRLVKKIVTFALVAEAIGFVFLSYRWVPEMGWQTGMFYALFHSISAFNNAGFALFSDSMMSFVNDPLVSFTLAGLFIFGGLGFTVIGDVWRHWRKGFHFLHIHTKIMLIATPLLLLVGTVLFWLLERHNPNTMGSLTTGGQWLAAFFQSASARTAGFNSVDLTQFTQPALLIMIVLMLIGAGSTSTGGGIKVSTFAVAFMATWTFLRQKKHVVMFKRTVNWPTVTKSLAIIVVSGAILTTAMFLLMLTEKASFDKVMFETISAFATVGLTAGLTAELSEPGKYIMIVVMIIGRIGPLTLAYMLARPEPTLIKYPEDTVLTG
notes: KtrB, transmembrane pore-forming subunit of the K+ channel KtrAB, Vibrio alginolyticus; C-terminal residue G455; Homodimer; It was in DDM for the deposited structures and in MSP2N2 nanodiscs with E. coli polar lipids for one cryo-EM data set; also called VaKtrB; KtrB dimer; source: E. coli LB2003, membranes mixed with KtrA-containing cytosol, solubilised in DDM, co-purified with KtrA (Ni-NTA, …)
B4: KtrB from Vibrio alginolyticus with deletion of residues 2-19 (natural protein)
chain: MAKGGEPRIILLSFLGVLLPSAVLLTLPVFSVSGLSITDALFTATSAISVTGLGVVDTGQHFTLAGKILLMCLMQIGGLGQMTLSAVLLYMFGVRLSLRQQALAKEALGQERQVNLRRLVKKIVTFALVAEAIGFVFLSYRWVPEMGWQTGMFYALFHSISAFNNAGFALFSDSMMSFVNDPLVSFTLAGLFIFGGLGFTVIGDVWRHWRKGFHFLHIHTKIMLIATPLLLLVGTVLFWLLERHNPNTMGSLTTGGQWLAAFFQSASARTAGFNSVDLTQFTQPALLIMIVLMLIGAGSTSTGGGIKVSTFAVAFMATWTFLRQKKHVVMFKRTVNWPTVTKSLAIIVVSGAILTTAMFLLMLTEKASFDKVMFETISAFATVGLTAGLTAELSEPGKYIMIVVMIIGRIGPLTLAYMLARPEPTLIKYPEDTVLTG
notes: KtrB, Vibrio alginolyticus, with the N-terminal residues 2-19 deleted; Two KtrB dimers stand in the solved assembly: KtrBΔ2-19_(4)A8, deposited as KtrB2A8B2 with the N-terminal KtrB deletion; also called KtrBΔ2-19; KtrAB_(Δ2-19); source: purified as a complex with KtrA (SEC)

The target in data set [1] is T1, KtrAB (native KtrB2A8 complex) (Vibrio alginolyticus, UniProt O87952).
T1 construct: gene ktrA; full-length complex in DDM; tagless KtrB membranes (E. coli LB2003) mixed with KtrA (C-terminal His tag, removed by 3C protease); KtrA octamer with one KtrB dimer; with Ktr system potassium uptake protein B
T1 sequence (O87952 1-220): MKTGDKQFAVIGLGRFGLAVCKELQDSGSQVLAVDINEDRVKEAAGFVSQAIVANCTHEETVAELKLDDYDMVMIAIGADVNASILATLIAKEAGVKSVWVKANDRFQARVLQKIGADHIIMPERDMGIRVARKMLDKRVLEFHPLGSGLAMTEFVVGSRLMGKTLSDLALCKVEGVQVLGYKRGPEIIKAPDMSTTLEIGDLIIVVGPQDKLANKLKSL
T1 sequence (O87953 1-455 partner): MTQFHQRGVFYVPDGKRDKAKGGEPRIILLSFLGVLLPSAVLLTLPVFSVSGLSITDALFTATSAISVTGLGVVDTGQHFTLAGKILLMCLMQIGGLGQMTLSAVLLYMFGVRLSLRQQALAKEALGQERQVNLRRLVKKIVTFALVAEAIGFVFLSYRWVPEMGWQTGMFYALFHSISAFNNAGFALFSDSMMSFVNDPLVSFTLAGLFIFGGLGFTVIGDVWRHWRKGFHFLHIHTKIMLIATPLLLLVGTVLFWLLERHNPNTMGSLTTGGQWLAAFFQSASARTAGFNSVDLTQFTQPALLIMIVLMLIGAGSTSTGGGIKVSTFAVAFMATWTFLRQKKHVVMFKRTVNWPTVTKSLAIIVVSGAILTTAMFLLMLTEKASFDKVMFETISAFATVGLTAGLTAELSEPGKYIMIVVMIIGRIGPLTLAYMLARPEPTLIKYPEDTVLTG
Put plainly: cryo-EM structure, […] Å. The following applies: co-purified ADP, sample prepared with ATP and MgCl2. In kind it is binding.

The target of data set [2] is T2, KtrA (VaKtrA, KtrAC3H) (Vibrio alginolyticus, UniProt O87952).
T2 construct: full-length cytosolic RCK subunit, C-terminal 3C-cleavable His tag (KtrAC3H), eluted with imidazole (tag kept), expressed in E. coli C43(DE3)ΔacrAB; homooctameric ring
T2 sequence (O87952 1-220): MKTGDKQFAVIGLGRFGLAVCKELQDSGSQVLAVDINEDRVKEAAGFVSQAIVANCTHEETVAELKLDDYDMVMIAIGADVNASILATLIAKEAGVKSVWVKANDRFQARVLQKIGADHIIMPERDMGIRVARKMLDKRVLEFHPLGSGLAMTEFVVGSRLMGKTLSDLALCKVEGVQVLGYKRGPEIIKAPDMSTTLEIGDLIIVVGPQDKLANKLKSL
The data set is described as follows: isothermal titration calorimetry. In kind it is binding. The following applies: pH 8, 24 °C, 20 mM HEPES, 140 mM NaCl, 60 mM KCl; one-site fit; no KtrB. On the technique in general: ITC needs no label: the signal is the heat of the interaction.

In data set [3] the target is T3, KtrAB (KtrB2A8B2 complex) (Vibrio alginolyticus, UniProt O87952).
T3 construct: gene ktrA; nonphysiological assembly with a second KtrB dimer on the KtrA octamer; full-length, in DDM; wild type purified via ATP agarose; KtrA C-terminal His tag removed by 3C protease; with Ktr system potassium uptake protein B
T3 sequence (O87952 1-220): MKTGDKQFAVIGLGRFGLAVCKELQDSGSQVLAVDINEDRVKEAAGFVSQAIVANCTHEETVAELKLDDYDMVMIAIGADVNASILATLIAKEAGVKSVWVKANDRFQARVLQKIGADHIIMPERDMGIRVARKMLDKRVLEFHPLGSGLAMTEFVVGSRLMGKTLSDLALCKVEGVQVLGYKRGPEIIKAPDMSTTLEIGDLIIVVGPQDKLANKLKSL
T3 sequence (O87953 1-455 partner): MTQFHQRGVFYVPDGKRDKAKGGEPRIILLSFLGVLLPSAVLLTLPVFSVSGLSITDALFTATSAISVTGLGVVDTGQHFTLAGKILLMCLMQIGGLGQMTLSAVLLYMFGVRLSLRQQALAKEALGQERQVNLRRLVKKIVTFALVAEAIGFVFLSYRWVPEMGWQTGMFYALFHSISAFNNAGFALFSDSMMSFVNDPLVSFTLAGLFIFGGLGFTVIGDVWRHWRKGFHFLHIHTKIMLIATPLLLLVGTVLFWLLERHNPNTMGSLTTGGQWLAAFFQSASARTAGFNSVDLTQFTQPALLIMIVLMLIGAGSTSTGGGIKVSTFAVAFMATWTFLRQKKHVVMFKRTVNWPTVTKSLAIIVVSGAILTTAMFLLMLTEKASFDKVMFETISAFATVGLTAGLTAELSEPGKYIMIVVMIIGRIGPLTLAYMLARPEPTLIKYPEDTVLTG
Put plainly: cryo-EM structure, […] Å. The following applies: ADP found despite ATP agarose and ATP in the sample; Mg2+ at alpha-phosphate. In kind it is binding.

The target in data set [4] is T2, KtrA (VaKtrA, KtrAC3H). Put plainly: differential scanning fluorimetry (SYPRO Orange). The note with it: pH 7.5, 20 mM Tris-HCl, 140 mM NaCl, 60 mM KCl; 5 µM KtrA; melting temperature with ligand, not a shift. The format is binding.
The target of data set [5] is B3. Put plainly: cryo-EM structure; natively assembled KtrB2A8 complex in DDM, 2.8 Å, C2 symmetry; sample supplemented with 1 mM ATP and 2 mM MgCl2, ADP found bound. The following applies: both partners purified.
Data set [6] deals with the molecule itself. Described as above.
Data set [7] concerns the target B3. Put plainly: cryo-EM structure; nonphysiological KtrB2A8B2 assembly purified via ATP agarose, in DDM, 2.5 Å, D2 symmetry; 1 mM ATP and 2 mM MgCl2, ADP found bound. The following applies: both partners purified.
Data set [8] concerns the molecule itself. The data set is described as above.
The target in data set [9] is B4. Put plainly: cryo-EM structure; KtrAB with KtrB Δ2-19, KtrBΔ2-19_(4)A8 assembly, supplemented with 1 mM ATP, 3.6 Å, 58,000 particles. The note with it: both partners purified.
Data set [10] concerns the molecule itself. The description is as above.

As to `Nc1ncnc2c1ncn2[C@@H]1O[C@H](COP(=O)(O)OP(=O)(O)O)[C@@H](O)[C@H]1O` [ADP], the “cryo-EM structure, 2.8 Å” value in [1] is “KtrA ring contains non-protein densities corresponding to ADP molecules”. Also, binding on KtrA (VaKtrA, KtrAC3H) [2] was put at a Kd of 3400 nM. For the same molecule, in [3], the “cryo-EM structure, 2.5 Å” value is given as “ADP molecules bound to the N lobes of each of the eight KtrA subunits”. On KtrA (VaKtrA, KtrAC3H) [4], the Tm came to 67 °C.
Molecule `Nc1ncnc2c1ncn2[C@@H]1O[C@H](COP(=O)(O)OP(=O)(O)OP(=O)(O)O)[C@@H](O)[C@H]1O` [ATP] displayed a Kd on KtrA (VaKtrA, KtrAC3H) [2] of 2400 nM. Moreover, the Tm at KtrA (VaKtrA, KtrAC3H) [4] turned out to be 55 °C.

B1: KtrA from Vibrio alginolyticus, His tag cleaved off with 3C protease (natively assembled KtrB2A8 preparation) (natural protein, UniProt O87952 1-220, looked up)
chain: MKTGDKQFAVIGLGRFGLAVCKELQDSGSQVLAVDINEDRVKEAAGFVSQAIVANCTHEETVAELKLDDYDMVMIAIGADVNASILATLIAKEAGVKSVWVKANDRFQARVLQKIGADHIIMPERDMGIRVARKMLDKRVLEFHPLGSGLAMTEFVVGSRLMGKTLSDLALCKVEGVQVLGYKRGPEIIKAPDMSTTLEIGDLIIVVGPQDKLANKLKSL
notes: KtrA, cytosolic RCK subunit of the K+ channel KtrAB, Vibrio alginolyticus; full-length KtrAB; Residues of the 3C site may remain at the C-terminus after cleavage; also called VaKtrA; KtrAC3H; source: E. coli C43(DE3)ΔacrAB; not shown: His tag, C-terminal, cleaved
In the case of B1, the binding result in [5] was “binds”. Further, the “stoichiometry N” value in [6] is 8.

B2: KtrA from Vibrio alginolyticus with C-terminal His tag (KtrAC3H), eluted with imidazole (natural protein, UniProt O87952 1-220, looked up)
chain: MKTGDKQFAVIGLGRFGLAVCKELQDSGSQVLAVDINEDRVKEAAGFVSQAIVANCTHEETVAELKLDDYDMVMIAIGADVNASILATLIAKEAGVKSVWVKANDRFQARVLQKIGADHIIMPERDMGIRVARKMLDKRVLEFHPLGSGLAMTEFVVGSRLMGKTLSDLALCKVEGVQVLGYKRGPEIIKAPDMSTTLEIGDLIIVVGPQDKLANKLKSL
notes: KtrA, cytosolic RCK subunit of the K+ channel KtrAB, Vibrio alginolyticus; full-length KtrAB; Same construct as m1; Here no 3C cleavage is reported: imidazole elution for isolated KtrA, and imidazole removal is mentioned before the ATP agarose step; also called VaKtrA; isolated KtrA ring; source: E. coli C43(DE3)ΔacrAB, purified (Ni-NTA eluted with imidazole, SEC); for KtrB2A8B2 also ATP agarose
Turning to B2, the binding result in data set [7] and in data set [9] was “binds” throughout. Also, the “stoichiometry N” value in data set [8] was found to be 8.
For the molecule B3, in [6], the “stoichiometry N” value turned out to be 2.
On to B4, for which the binding result in data set [10] is on record as “binds”.

A word on the Kd: it is a measure of binding affinity in units of concentration. The low end stands for higher affinity, the high end for lower affinity. What is called stoichiometry N is a count of units in the complex or per binding partner.
